Test results reported in patent US20240166757A1.

How the values were obtained:
[1] = molecular target: hCD70 Biotin E131664-01 (human) (UniProt P32970); test: BLI; antibody as probe on AHC (anti-Fc) biosensor, hCD70 Biotin titrated as analyte; '37 C' printed with the probe; 1:1 global fit
[2] = molecular target: hFcRN mFc.67 N297A IHH avi biotin (human) (UniProt P55899); test: BLI at pH 7.46 (row 'hFcRN pH 7.46'); biotinylated hFcRN-monomeric Fc fusion on streptavidin biosensor, antibody titrated as analyte; 1:1 global fit
[3] = molecular target: hFcRN mFc.67 N297A IHH avi biotin (human) (UniProt P55899); test: BLI at pH 6.09 (row 'hFcRN pH 6.09'); biotinylated hFcRN-monomeric Fc fusion on streptavidin biosensor, antibody titrated as analyte; 1:1 global fit
[4] = molecular target: hCD64 P2 mFc.67 N297A LALA-PG avi (human) (UniProt P12314); test: BLI; biotinylated avi-tagged receptor-monomeric Fc fusion on streptavidin biosensor, antibody titrated as analyte; 1:1 global fit
hFcγR 2b (human) = hFcγR 2b (human) (UniProt P31994); test: as above
[5] = molecular target: hCD70 Biotin E131664-01 (human) (UniProt P32970); test: BLI; antibody as probe on AHC (anti-Fc) biosensor, hCD70 Biotin titrated as analyte; '37 C' printed with the probe; 1:1 global fit [Cont.]
[6] = molecular target: cynomolgus FcγRIIIa receptor overexpressed on CHO cells (cynomolgus) (UniProt Q8SPW2); test: flow cytometry on CHO cells overexpressing cynomolgus FcγRIIIa (CHO/cynoCD16); detection with anti-human IgG-PE
[7] = molecular target: hFcgR 3a V158 mFc.67 N297A LALAPG avi biotin (human) (UniProt P08637); test: BLI; biotinylated FcγR fusion on streptavidin biosensor, antibody titrated; 1:1 global fit
[8] = molecular target: hFcgR 3a F158 mFc.67 N297A LALAPG avi biotin (human) (UniProt P08637); test: BLI; biotinylated avi-tagged receptor-monomeric Fc fusion on streptavidin biosensor, antibody titrated as analyte; 1:1 global fit
[9] = molecular target: hFcgR 2a H131 mFc.67 N297A LALAPG avi biotin (human) (UniProt P12318); test: as above
[10] = molecular target: hFcgR 2a R131 mFc.67 N297A LALAPG avi biotin (human) (UniProt P12318); test: as above
[11] = molecular target: high affinity human FcγRIIIa receptor (158V) overexpressed on CHO cells (human) (UniProt P08637); test: flow cytometry on CHO cells overexpressing human FcγRIIIa 158V (CHO/hCD16); detection with anti-human IgG-PE
high affinity human FcγRIIIa receptor (158V) overexpressed on CHO cells (human), sequence (P08637 17-254 F176V): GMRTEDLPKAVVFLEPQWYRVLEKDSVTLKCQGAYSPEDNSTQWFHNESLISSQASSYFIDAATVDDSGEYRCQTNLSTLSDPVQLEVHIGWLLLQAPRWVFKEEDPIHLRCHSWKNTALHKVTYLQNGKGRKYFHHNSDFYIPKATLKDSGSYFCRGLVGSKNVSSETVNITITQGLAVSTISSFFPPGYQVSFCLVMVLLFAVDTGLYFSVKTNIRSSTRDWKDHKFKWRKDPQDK

hCD70 Biotin E131664-01 (human), sequence (P32970 39-193 limits assumed): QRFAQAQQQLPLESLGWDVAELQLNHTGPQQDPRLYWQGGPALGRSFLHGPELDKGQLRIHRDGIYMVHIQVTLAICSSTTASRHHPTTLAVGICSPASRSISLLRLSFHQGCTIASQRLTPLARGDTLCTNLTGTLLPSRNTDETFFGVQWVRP
hFcγR 2b (human), sequence (P31994 43-217): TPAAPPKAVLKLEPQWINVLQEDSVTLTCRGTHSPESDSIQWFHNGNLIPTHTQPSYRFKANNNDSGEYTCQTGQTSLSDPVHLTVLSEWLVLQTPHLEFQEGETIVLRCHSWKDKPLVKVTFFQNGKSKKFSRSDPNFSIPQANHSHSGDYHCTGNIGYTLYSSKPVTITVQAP
cynomolgus FcγRIIIa receptor overexpressed on CHO cells (cynomolgus), sequence (Q8SPW2 17-254): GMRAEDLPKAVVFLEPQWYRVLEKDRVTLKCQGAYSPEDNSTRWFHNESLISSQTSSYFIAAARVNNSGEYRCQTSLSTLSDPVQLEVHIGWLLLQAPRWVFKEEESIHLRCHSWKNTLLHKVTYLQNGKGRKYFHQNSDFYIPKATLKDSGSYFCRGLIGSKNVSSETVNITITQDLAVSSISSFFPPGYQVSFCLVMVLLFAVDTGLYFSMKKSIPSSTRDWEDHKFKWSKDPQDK

Kd [1] [nM]	Kd [2] [nM]	Kd [3] [nM]	Kd [4] [nM]	Kd (hFcγR 2b (human)) [nM]	kon [5] [M⁻¹ s⁻¹]	EC50 (read off the curve) [6] [µg/mL]	Kd [7] [nM]	kon [2] [M⁻¹ s⁻¹]	kon [3] [M⁻¹ s⁻¹]	Kd [8] [nM]	kon [8] [M⁻¹ s⁻¹]	Kd [9] [nM]	kon [9] [M⁻¹ s⁻¹]	kon [4] [M⁻¹ s⁻¹]	kon (hFcγR 2b (human)) [M⁻¹ s⁻¹]	Kd [10] [nM]	kon [10] [M⁻¹ s⁻¹]	EC50 (read off the curve) [11] [µg/mL]	Binder
0.24	16700	19	0.42	27000	–	–	–	–	–	–	–	–	–	–	–	–	–	–	SEA-CD70 (nonfucosylated h1F6) (antibody, INN chains, looked up, V domains shown, part only, nonfucosylated afucosylated) VH: QVQLVQSGAEVKKPGASVKVSCKASGYTFTNYGMNWVRQAPGQGLKWMGWINTYTGEPTYADAFKGRVTMTRDTSISTAYMELSRLRSDDTAVYYCARDYGDYGMDYWGQGTTVTVSS VL: DIVMTQSPDSLAVSLGERATINCRASKSVSTSGYSFMHWYQQKPGQPPKLLIYLASNLESGVPDRFSGSGSGTDFTLTISSLQAEDVAVYYCQHSREVPWTFGQGTKVEIK
0.23	15000	17	0.66	25000	270000	1	860	42000	720000	5300	27000	2600	100000	770000	26000	4500	77000	1	SGN-70 (fucosylated h1F6) (antibody, INN chains, looked up, V domains shown, part only) VH: QVQLVQSGAEVKKPGASVKVSCKASGYTFTNYGMNWVRQAPGQGLKWMGWINTYTGEPTYADAFKGRVTMTRDTSISTAYMELSRLRSDDTAVYYCARDYGDYGMDYWGQGTTVTVSS VL: DIVMTQSPDSLAVSLGERATINCRASKSVSTSGYSFMHWYQQKPGQPPKLLIYLASNLESGVPDRFSGSGSGTDFTLTISSLQAEDVAVYYCQHSREVPWTFGQGTKVEIK
